Experimental data: paper doi:10.1101/634907

What was measured:
[1] = target: recombinant human CLASP2 C-terminal fragment (CLASP2-1213-1515) (human); test: SEC + other: density gradient centrifugation
[2] = target: T1, CLASP2 (endogenous, HeLa cell extracts) (human (endogenous in HeLa)), O75122; test: SEC + other: density gradient centrifugation; conditions: remark: other sources report otherwise
T1 chain: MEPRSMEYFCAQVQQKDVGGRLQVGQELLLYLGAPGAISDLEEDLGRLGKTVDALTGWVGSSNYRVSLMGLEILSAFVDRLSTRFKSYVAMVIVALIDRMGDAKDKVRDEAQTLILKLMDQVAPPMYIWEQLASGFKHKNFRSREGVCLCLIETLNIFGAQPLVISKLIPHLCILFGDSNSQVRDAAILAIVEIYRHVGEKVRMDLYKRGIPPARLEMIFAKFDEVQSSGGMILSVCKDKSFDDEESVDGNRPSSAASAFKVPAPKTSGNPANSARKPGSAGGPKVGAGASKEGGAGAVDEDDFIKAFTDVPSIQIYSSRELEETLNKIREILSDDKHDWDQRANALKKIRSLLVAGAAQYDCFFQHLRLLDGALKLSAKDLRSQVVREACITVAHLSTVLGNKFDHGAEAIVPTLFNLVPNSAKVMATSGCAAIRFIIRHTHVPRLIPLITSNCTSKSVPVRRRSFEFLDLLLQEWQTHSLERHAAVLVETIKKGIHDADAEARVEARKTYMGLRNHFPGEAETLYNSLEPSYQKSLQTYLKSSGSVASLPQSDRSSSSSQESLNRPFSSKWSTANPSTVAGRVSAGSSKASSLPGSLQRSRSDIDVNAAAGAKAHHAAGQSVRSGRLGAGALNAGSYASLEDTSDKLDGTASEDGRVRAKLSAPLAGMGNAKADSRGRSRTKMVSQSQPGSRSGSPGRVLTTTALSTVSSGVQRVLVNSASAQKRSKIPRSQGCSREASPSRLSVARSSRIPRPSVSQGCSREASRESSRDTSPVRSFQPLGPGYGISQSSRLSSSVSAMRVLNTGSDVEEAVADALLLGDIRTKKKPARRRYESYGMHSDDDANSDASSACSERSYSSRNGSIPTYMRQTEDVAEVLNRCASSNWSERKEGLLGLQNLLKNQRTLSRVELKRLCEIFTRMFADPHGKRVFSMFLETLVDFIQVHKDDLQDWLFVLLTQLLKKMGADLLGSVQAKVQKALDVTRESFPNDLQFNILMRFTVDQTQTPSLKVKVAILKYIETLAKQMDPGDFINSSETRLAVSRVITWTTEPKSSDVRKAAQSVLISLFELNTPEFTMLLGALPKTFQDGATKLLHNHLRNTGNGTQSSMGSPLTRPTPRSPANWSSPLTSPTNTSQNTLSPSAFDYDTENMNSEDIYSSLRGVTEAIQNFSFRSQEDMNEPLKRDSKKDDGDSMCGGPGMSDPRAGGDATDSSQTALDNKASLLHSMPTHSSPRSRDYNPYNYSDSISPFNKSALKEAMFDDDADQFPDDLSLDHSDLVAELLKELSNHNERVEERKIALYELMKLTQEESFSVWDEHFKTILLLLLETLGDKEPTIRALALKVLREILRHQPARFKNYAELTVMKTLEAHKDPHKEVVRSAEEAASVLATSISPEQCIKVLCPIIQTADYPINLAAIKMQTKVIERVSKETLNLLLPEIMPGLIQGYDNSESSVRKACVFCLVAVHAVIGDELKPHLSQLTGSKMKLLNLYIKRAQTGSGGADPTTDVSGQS

| Molecule | stoichiometry N [1] | stoichiometry N [2] |
| --- | --- | --- |
| recombinant human CLASP2 C-terminal fragment (CLASP2-1213-1515) (domain or fragment) | 2 | – |
| CLASP2 (endogenous, HeLa cell extracts), O75122-3 1-1515 (natural protein) MEPRSMEYFCAQVQQKDVGGRLQVGQELLLYLGAPGAISDLEEDLGRLGKTVDALTGWVGSSNYRVSLMGLEILSAFVDRLSTRFKSYVAMVIVALIDRMGDAKDKVRDEAQTLILKLMDQVAPPMYIWEQLASGFKHKNFRSREGVCLCLIETLNIFGAQPLVISKLIPHLCILFGDSNSQVRDAAILAIVEIYRHVGEKVRMDLYKRGIPPARLEMIFAKFDEVQSSGGMILSVCKDKSFDDEESVDGNRPSSAASAFKVPAPKTSGNPANSARKPGSAGGPKVGAGASKEGGAGAVDEDDFIKAFTDVPSIQIYSSRELEETLNKIREILSDDKHDWDQRANALKKIRSLLVAGAAQYDCFFQHLRLLDGALKLSAKDLRSQVVREACITVAHLSTVLGNKFDHGAEAIVPTLFNLVPNSAKVMATSGCAAIRFIIRHTHVPRLIPLITSNCTSKSVPVRRRSFEFLDLLLQEWQTHSLERHAAVLVETIKKGIHDADAEARVEARKTYMGLRNHFPGEAETLYNSLEPSYQKSLQTYLKSSGSVASLPQSDRSSSSSQESLNRPFSSKWSTANPSTVAGRVSAGSSKASSLPGSLQRSRSDIDVNAAAGAKAHHAAGQSVRSGRLGAGALNAGSYASLEDTSDKLDGTASEDGRVRAKLSAPLAGMGNAKADSRGRSRTKMVSQSQPGSRSGSPGRVLTTTALSTVSSGVQRVLVNSASAQKRSKIPRSQGCSREASPSRLSVARSSRIPRPSVSQGCSREASRESSRDTSPVRSFQPLGPGYGISQSSRLSSSVSAMRVLNTGSDVEEAVADALLLGDIRTKKKPARRRYESYGMHSDDDANSDASSACSERSYSSRNGSIPTYMRQTEDVAEVLNRCASSNWSERKEGLLGLQNLLKNQRTLSRVELKRLCEIFTRMFADPHGKRVFSMFLETLVDFIQVHKDDLQDWLFVLLTQLLKKMGADLLGSVQAKVQKALDVTRESFPNDLQFNILMRFTVDQTQTPSLKVKVAILKYIETLAKQMDPGDFINSSETRLAVSRVITWTTEPKSSDVRKAAQSVLISLFELNTPEFTMLLGALPKTFQDGATKLLHNHLRNTGNGTQSSMGSPLTRPTPRSPANWSSPLTSPTNTSQNTLSPSAFDYDTENMNSEDIYSSLRGVTEAIQNFSFRSQEDMNEPLKRDSKKDDGDSMCGGPGMSDPRAGGDATDSSQTALDNKASLLHSMPTHSSPRSRDYNPYNYSDSISPFNKSALKEAMFDDDADQFPDDLSLDHSDLVAELLKELSNHNERVEERKIALYELMKLTQEESFSVWDEHFKTILLLLLETLGDKEPTIRALALKVLREILRHQPARFKNYAELTVMKTLEAHKDPHKEVVRSAEEAASVLATSISPEQCIKVLCPIIQTADYPINLAAIKMQTKVIERVSKETLNLLLPEIMPGLIQGYDNSESSVRKACVFCLVAVHAVIGDELKPHLSQLTGSKMKLLNLYIKRAQTGSGGADPTTDVSGQS | – | 2 |
